± gives the uncertainty stated by the source.
Test: self-splicing fitness, log relative to wild type (ln ratio); higher = more splicing; Tetrahymena group I intron in knt gene, E. coli kanamycin selection, DiMSum; sequences stand for … in CUCUCU…GGAGGGAAAAGUUAUCAGGCAUGCACCUGGUAGCUAGUCUUUAAACCAAUAGAUUGCAUCGGUUUAAAAGGCAAGACCGUCAAAUUGCGGGAAAGGGGUCAACAGCCGUUCAGUACCAAGUCUCAGGGGAAACUUUGAGAUGGCCUUGCAAAGGGUAUGGUAAUAAGCUGACGGACAUGGUCCUAACCACGCAGCCAAGUCCUAAGUCAACAGAUCUUCUGUUGAUAUGGAUGCAGUUCACAGACUAAAUGUCGGUCGGGGAAGAUGUAUUCUUCUCAUAAGAUAUAGUCGGACCUCUCCUUAAUGGGAGCUAGCGGAUGAAGUGAUGCAACACUGGAGCCGCUGGGAACUAAUUUGUAUGCGAAAGUAUAUUGAUUAGUUUUGGAGUACUCGUGGUCG
Method in brief: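 DiMSum derived fitness as the error-weighted combination of fold changes across replicates, kanamycin versus no kanamycin, normalised to wild type. E. coli BL21(DE3) held the library, which randomised all eight P1ex-region intron nucleotides within the knt kanamycin-resistance gene on pET-22b(+). Six replicate transformations grew overnight at 37°C or 30°C on LB agar with or without 25 μg/mL kanamycin, also containing 100 μg/mL carbenicillin, 50 μM IPTG and 0.2% rhamnose, and pooled colonies were amplicon-sequenced on an Illumina HiSeq 2500.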

| Sequence | self-splicing fitness (ln) (30 °C) | self-splicing fitness (ln) (37 °C) |
| --- | --- | --- |
| CGGAAGCAAUAUUACGAGCG | -1.14 ± 0.098 | -1.11 ± 0.095 |
| CGGAAGCAAUAUUACGAUAA |  | -1.52 ± 0.25 |
| CGGAAGCAAUAUUACGCACA | -1.07 ± 0.15 | 0.386 ± 0.16 |
| CGGAAGCAAUAUUACGCCAC | -3.64 ± 0.18 | -2.78 ± 0.26 |
| CGGAAGCAAUAUUACGCGAU | -3.28 ± 0.28 | -2.05 ± 0.33 |
| CGGAAGCAAUAUUACGGAUU | -4.05 ± 0.2 | -2.36 ± 0.13 |
| CGGAAGCAAUAUUACGGGAG | -2.37 ± 0.1 | -2.02 ± 0.17 |
| CGGAAGCAAUAUUACGGGCU | -3.27 ± 0.18 | -3.3 ± 0.25 |
| CGGAAGCAAUAUUACGUCUG | -3.74 ± 0.2 | -2.46 ± 0.19 |
| CGGAAGCAAUAUUACGUGUG | -1.38 ± 0.051 | -0.291 ± 0.067 |
| CGGAAGCAAUAUUACGUUUG | -1.9 ± 0.071 | -1.35 ± 0.089 |
| CGGCAGCAAUAUUACGACUG | -1.74 ± 0.24 | -0.611 ± 0.26 |
| CGGCAGCAAUAUUACGAGGA | -4.01 ± 0.43 | -2.28 ± 0.26 |
| CGGCAGCAAUAUUACGCACG | -2.17 ± 0.15 | -2.1 ± 0.23 |
| CGGCAGCAAUAUUACGCAGA | -3.27 ± 0.31 | -2.48 ± 0.22 |
| CGGCAGCAAUAUUACGCCAC | -2.97 ± 0.23 | -1.52 ± 0.3 |
| CGGCAGCAAUAUUACGCCAG | -1.53 ± 0.21 |  |
| CGGCAGCAAUAUUACGCCCC | -1.66 ± 0.31 | -0.44 ± 0.36 |
| CGGCAGCAAUAUUACGCCUC | -3.4 ± 0.27 | -1.59 ± 0.25 |
| CGGCAGCAAUAUUACGCGAA | -2.67 ± 0.13 | -1.68 ± 0.15 |
| CGGCAGCAAUAUUACGCGAC | -4.41 ± 0.42 | -1.36 ± 0.18 |
| CGGCAGCAAUAUUACGCUUC |  | -1.56 ± 0.29 |
| CGGCAGCAAUAUUACGGGAG | -2.36 ± 0.15 | -1.77 ± 0.18 |
| CGGCAGCAAUAUUACGGGAU | -3.24 ± 0.18 | -2.38 ± 0.23 |
| CGGCAGCAAUAUUACGGGUC | -2.95 ± 0.21 | -1.74 ± 0.22 |
| CGGCAGCAAUAUUACGGUCG | -3.51 ± 0.27 | -2.94 ± 0.33 |
| CGGCAGCAAUAUUACGUAGC | -4.16 ± 0.36 | -3.03 ± 0.24 |

| Sequence | self-splicing fitness (ln) (30 °C) | self-splicing fitness (ln) (37 °C) |
| --- | --- | --- |
| CGGCAGCAAUAUUACGUCAA | -1.53 ± 0.11 | -1.43 ± 0.13 |
| CGGCAGCAAUAUUACGUCAU | -2.83 ± 0.12 | -1.09 ± 0.092 |
| CGGCAGCAAUAUUACGUGCA | -1.03 ± 0.27 | -0.293 ± 0.23 |
| CGGCAGCAAUAUUACGUGGU | -4.44 ± 0.25 | -1.93 ± 0.12 |
| CGGCAGCAAUAUUACGUUAA | -2.44 ± 0.16 | -1.1 ± 0.11 |
| CGGCAGCAAUAUUACGUUAG | -0.86 ± 0.057 | 0.0318 ± 0.078 |
| CGGGAGCAAUAUUACGAAAG | -2.47 ± 0.42 | -2.55 ± 0.42 |
| CGGGAGCAAUAUUACGACAU | -4.013 ± 0.038 | -2.67 ± 0.046 |
| CGGGAGCAAUAUUACGACGA | -1.82 ± 0.36 |  |
| CGGGAGCAAUAUUACGAGCA | -3 ± 0.19 | -3.2 ± 0.31 |
| CGGGAGCAAUAUUACGCCAC | -3.63 ± 0.29 | -2.63 ± 0.41 |
| CGGGAGCAAUAUUACGCGAC | -3.85 ± 0.29 | -1.59 ± 0.36 |
| CGGGAGCAAUAUUACGCGGU |  | -1.72 ± 0.29 |
| CGGGAGCAAUAUUACGCUUU |  | -0.957 ± 0.27 |
| CGGGAGCAAUAUUACGGCAC | -3.74 ± 0.28 | -1.62 ± 0.23 |
| CGGGAGCAAUAUUACGGGAG | -2.76 ± 0.22 | -2.44 ± 0.3 |
| CGGGAGCAAUAUUACGGGGG | -2.37 ± 0.3 |  |
| CGGGAGCAAUAUUACGGUAG | -3.73 ± 0.29 | -2 ± 0.27 |
| CGGGAGCAAUAUUACGGUUG | -1.89 ± 0.44 |  |
| CGGGAGCAAUAUUACGUAGC | -2.26 ± 0.32 | -1.05 ± 0.22 |
| CGGGAGCAAUAUUACGUAUC | -2.58 ± 0.49 |  |
| CGGGAGCAAUAUUACGUCAA | -2.14 ± 0.19 | -2.79 ± 0.38 |
| CGGGAGCAAUAUUACGUCUU |  | -0.499 ± 0.36 |
| CGGGAGCAAUAUUACGUUGU | -4.45 ± 0.29 | -2.65 ± 0.26 |
| CGGUAGCAAUAUUACGAACC |  | -1.2 ± 0.31 |
| CGGUAGCAAUAUUACGAAUG | -0.573 ± 0.076 | 0.205 ± 0.097 |
| CGGUAGCAAUAUUACGACAU | -2.405 ± 0.019 | -1.38 ± 0.035 |

| Sequence | self-splicing fitness (ln) (30 °C) | self-splicing fitness (ln) (37 °C) |
| --- | --- | --- |
| CGGUAGCAAUAUUACGACCG | -2.88 ± 0.36 | -2.07 ± 0.42 |
| CGGUAGCAAUAUUACGACUG | -2.54 ± 0.28 | -1.86 ± 0.32 |
| CGGUAGCAAUAUUACGAGUU | -3.87 ± 0.36 | -3.26 ± 0.27 |
| CGGUAGCAAUAUUACGAUGA | -1.38 ± 0.13 | -0.66 ± 0.16 |
| CGGUAGCAAUAUUACGCAUA | -4.37 ± 0.42 | -2.34 ± 0.26 |
| CGGUAGCAAUAUUACGCUGG | -0.433 ± 0.13 | -0.681 ± 0.15 |
| CGGUAGCAAUAUUACGGAUU | -2.63 ± 0.36 | -2.23 ± 0.34 |
| CGGUAGCAAUAUUACGGCCU | -0.555 ± 0.12 | -0.911 ± 0.12 |
| CGGUAGCAAUAUUACGGCUC | -1.15 ± 0.079 | -0.532 ± 0.11 |
| CGGUAGCAAUAUUACGGGAG | -3.22 ± 0.17 | -1.71 ± 0.14 |
| CGGUAGCAAUAUUACGGGAU | -3.86 ± 0.47 |  |
| CGGUAGCAAUAUUACGGGUG | -0.483 ± 0.068 | 0.146 ± 0.077 |
| CGGUAGCAAUAUUACGGUCU | -0.673 ± 0.068 | -0.251 ± 0.093 |
| CGGUAGCAAUAUUACGGUGC | -2.22 ± 0.27 | -2.48 ± 0.38 |
| CGGUAGCAAUAUUACGGUGG | -0.519 ± 0.092 | -0.124 ± 0.12 |
| CGGUAGCAAUAUUACGUAAA | -1.14 ± 0.08 | -2.33 ± 0.17 |
| CGGUAGCAAUAUUACGUAUU | -2 ± 0.32 | -2.16 ± 0.27 |
| CGGUAGCAAUAUUACGUCGG | -0.5 ± 0.095 | 0.638 ± 0.12 |
| CGGUAGCAAUAUUACGUGAG | -0.593 ± 0.059 | 0.467 ± 0.092 |
| CGGUAGCAAUAUUACGUGCA | -1.61 ± 0.12 | -0.501 ± 0.13 |
| CGGUAGCAAUAUUACGUGCC | -1.18 ± 0.14 | -4.06 ± 0.34 |
| CGGUAGCAAUAUUACGUUAC | -3.32 ± 0.36 | -2.09 ± 0.31 |
| CGGUAGCAAUAUUACGUUGA | -3.27 ± 0.35 | -1.76 ± 0.17 |
| CGUAAGCAAUAUUACGAACA | -1.23 ± 0.19 | -0.207 ± 0.22 |
| CGUAAGCAAUAUUACGAAUU | -3.76 ± 0.29 | -2.17 ± 0.21 |

From the supplement of paper PMC7877785
